The target in experiment [1] is DnaK (protein used for surface plasmon resonance) (Mycoplasma fermentans). Kind of experiment: SPR; BIAcore T100, 25°C, HBS-EP (10 mM HEPES, 150 mM NaCl, 0.05% surfactant P20, pH 7.4, 3 mM EDTA); DnaK (2220 RU) amine-coupled on CM5 chip, PARP1 as analyte at 35 ul/min, 250 s association, 600 s dissociation; preliminary kinetic analysis. In general terms: In SPR one partner is held on a chip, and binding of the other changes the refractive index at the surface.

The target is the same in experiment [2]. Kind of experiment: SPR; BIAcore T100, 25°C, HBS-EP (10 mM HEPES, 150 mM NaCl, 0.05% surfactant P20, pH 7.4, 3 mM EDTA); DnaK (2274.9 RU) amine-coupled on CM5 chip, DnaK as analyte at 35 ul/min, 120 s association, 600 s dissociation; preliminary kinetic analysis; self-binding (homodimer by the paper's words).

A word on the Kd: it is a measure of binding affinity in units of concentration. Substance “PARP1 (protein used for surface plasmon resonance) (from UniProt P09874 1-1014) (natural protein)” registered a Kd in experiment [1] of 25 nM.

In the case of “DnaK (protein used for surface plasmon resonance) (natural protein)”, the Kd in experiment [2] was determined as 29.6 nM.
